Measurements from patent US20230056252A1 (Gilead, published 2023).
Residue numbers refer to the chain shown, from its start.

B1: hPGT121.66 AAS + W/huSP34.3.8 scFv AAS + SAV + R (bispecific antibody, human IgG1, lambda, L234A L235A)
chain: EVQLVESGGGLVQPGGSLRLSCAASGFTFNTYAMNWVRQAPGKGLEWVGRIRSKYNNYATYYADSVKGRFTISRDDSKNSLYLQMNSLRTEDTAVYYCVRHGNFGHSYVSWFAYWGQGTLVTVSSGGGGSGGGGSGGGGSGGGGSQAVVTQEPSLTVSPGGTVTLTCGSSTGAVTTGHYANWVQQKPGQAPRGLIGGTNKRAPGVPARFSGSLLGGKAALTISGAQPEDEAEYYCALWYSNRWVFGGGTKLTVLEPKSSDKTHTCPPCPAPEAAGGPSVFLFPPKPKDTLMISRTPEVTCVVVDVSHEDPEVKFNWYVDGVEVHNAKTKPREEQYNSTYRVVSVLTVLHQDWLNGKEYKCKVSNKALPASIEKTISKAKGQPREPQVYTLPPSREEMTKNQVSLSCAVKGFYPSDIAVEWESNGQPENNYKTTPPVLDSDGSFFLVSKLTVDKSRWQQGNVFSCSVMHEALHNRYTQKSLSLSPGK
heavy: QMQLQESGPGLVKPSETLSLTCSVSGASISDSYWSWIRRSPGKGLEWIGYVHKSGDTNYNPSLKSRVHLSLDTSKNQVSLSLTGVTAADSGKYYCARTLHGRRIYGIVAFNEWFTYFYMDVWGTGTQVTVSSASTKGPSVFPLAPSSKSTSGGTAALGCLVKDYFPEPVTVSWNSGALTSGVHTFPAVLQSSGLYSLSSVVTVPSSSLGTQTYICNVNHKPSNTKVDKKVEPKSCDKTHTCPPCPAPEAAGGPSVFLFPPKPKDTLMISRTPEVTCVVVDVSHEDPEVKFNWYVDGVEVHNAKTKPREEQYNSTYRVVSVLTVLHQDWLNGKEYKCKVSNKALPASIEKTISKAKGQPREPQVYTLPPSREEMTKNQVSLWCLVKGFYPSDIAVEWESNGQPENNYKTTPPVLDSDGSFFLYSKLTVDKSRWQQGNVFSCSVMHEALHNHYTQKSLSLSPGK
light: not shown
B2: hPGT121.66 AAS + W/huSP34.34.3 scFv AAS + SAV + R (bispecific antibody, human IgG1, lambda, L234A L235A)
chain: not shown
heavy: B1 heavy
light: not shown
B3: hPGT121.66 AAS + W/huSP34.3.13scFv AAS + SAV + R (bispecific antibody, human IgG1, lambda, L234A L235A)
chain: B1 chain with N199S, K200N
heavy: B1 heavy
light: not shown
B4: hPGT121.66 AAS + W/huSP34.13.8 scFv AAS + SAV + R (bispecific antibody, human IgG1, lambda, L234A L235A)
chain: B1 chain with N30S, D64A, S80T
heavy: B1 heavy
light: not shown
notes: also called 261
B5: huSP34.2.1 Fab-HF (Fab, V domains shown)
VH: EVQLVESGGGLVQPGGSLRLSCAASGFTFSTYAMNWVRQAPGKGLEWVGRIRSKYNNYATYYAASVKGRFTISRDDSKNSLYLQMNSLKTEDTAMYYCVRHGNFGNSYVSWFAVWGQGTLVTVSS
VL: QAVVTQEPSLTVSPGGTVTLTCRSSTGAVTTSNYANWVQQKPGQAPRGLIGGTNKRAPWTPARFSGSLIGDKAALTLSGAQPEDEAEYYCALWYSNLWVFGGGTKLTVL
B6: huSP34.2.6 Fab-HF (Fab, V domains shown)
VH: B5 VH
VL: QAVVTQPPSLTVSPGGTVTLTCGSSTGAVTTGHYANWVQQKPGQAPRGLIGGTSNRAPGVPARFSGSLSGGKAALTISGAQPEDEAEYYCALWYSARWVFGGGTKLTVL
B7: huSP34.4.6 Fab-HF (Fab, V domains shown)
VH: B5 VH with K89R, M95V, N106H
VL: B6 VL
B8: huSP34.3.2 Fab-HF (Fab, V domains shown)
VH: B5 VH with S30N, A64D, K89R, M95V, N106H, V114Y
VL: B5 VL with R23G, N54S, K55N, I69L, D71G
B9: huSP34.4.1 Fab-HF (Fab, V domains shown)
VH: B5 VH with K89R, M95V, N106H
VL: B5 VL
B10: huSP34.3.5 Fab-HF (Fab, V domains shown)
VH: B5 VH with S30N, A64D, K89R, M95V, N106H, V114Y
VL: B6 VL with P7E, G59W, V60T, S69L, I77L
B11: huSP34.3.1 Fab-HF (Fab, V domains shown)
VH: B5 VH with S30N, A64D, K89R, M95V, N106H, V114Y
VL: B5 VL
B12: huSP34.2.2 Fab-HF (Fab, V domains shown)
VH: B5 VH
VL: B5 VL with R23G, N54S, K55N, I69L, D71G
B13: huSP34.13.7 Fab-HF (Fab, V domains shown)
VH: B5 VH with S80T, K89R, M95V, N106H, V114Y
VL: B5 VL with S32G, N33H, W59G, T60V, I69L, D71G, L77I
B14: huSP34.11.9 Fab-HF (Fab, V domains shown)
VH: B5 VH with K89R, M95V, N106H, V114Y
VL: B6 VL with S54N, N55K, A96N, R97L
B15: huSP34.12.9 Fab-HF (Fab, V domains shown)
VH: B5 VH with G49A, K89R, M95V, N106H, V114Y
VL: B6 VL with S54N, N55K, A96N, R97L
B16: huSP34.12.10 Fab-HF (Fab, V domains shown)
VH: B5 VH with G49A, K89R, M95V, N106H, V114Y
VL: B6 VL with S54N, N55K, A96N
B17: huSP34.12.7 Fab-HF (Fab, V domains shown)
VH: B5 VH with G49A, K89R, M95V, N106H, V114Y
VL: B5 VL with S32G, N33H, W59G, T60V, I69L, D71G, L77I
B18: huSP34.12.8 Fab-HF (Fab, V domains shown)
VH: B5 VH with G49A, K89R, M95V, N106H, V114Y
VL: B6 VL with P7E, S54N, N55K, S69L, A96N
B19: huSP34.13.9 Fab-HF (Fab, V domains shown)
VH: B5 VH with S80T, K89R, M95V, N106H, V114Y
VL: B6 VL with S54N, N55K, A96N, R97L
B20: huSP34.11.10 Fab-HF (Fab, V domains shown)
VH: B5 VH with K89R, M95V, N106H, V114Y
VL: B6 VL with S54N, N55K, A96N
B21: mSP34 Fab-HF (Fab, V domains shown)
VH: EVKLLESGGGLVQPKGSLKLSCAASGFTFNTYAMNWVRQAPGKGLEWVARIRSKYNNYATYYADSVKDRFTISRDDSQSILYLQMNNLKTEDTAMYYCVRHGNFGNSYVSWFAYWGQGTLVTVSA
VL: QAVVTQESALTTSPGETVTLTCRSSTGAVTTSNYANWVQEKPDHLFTGLIGGTNKRAPGVPARFSGSLIGDKAALTITGAQTEDEAIYFCALWYSNLWVFGGGTKLTVLG
notes: also called mSP34 chimeric Fab

What follows are binders tested against T1, CD3 expressed on cell-surface of primary human T cells (human, UniProt P07766 23-207; P04234 22-171) (assay: flow cytometry on PBMCs, % anti-huIgG+ CD4+ cells, donor hu 151).
T1 construct: also called cell-surface CD3; human CD3
T1 sequence (P07766 23-207 limits assumed, chain 1 of 2): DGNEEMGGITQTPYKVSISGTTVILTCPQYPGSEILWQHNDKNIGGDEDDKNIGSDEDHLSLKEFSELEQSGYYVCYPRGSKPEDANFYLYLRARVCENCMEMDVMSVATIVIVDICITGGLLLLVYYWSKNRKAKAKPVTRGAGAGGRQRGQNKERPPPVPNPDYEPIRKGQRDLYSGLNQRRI
T1 sequence (P04234 22-171 limits assumed, chain 2 of 2): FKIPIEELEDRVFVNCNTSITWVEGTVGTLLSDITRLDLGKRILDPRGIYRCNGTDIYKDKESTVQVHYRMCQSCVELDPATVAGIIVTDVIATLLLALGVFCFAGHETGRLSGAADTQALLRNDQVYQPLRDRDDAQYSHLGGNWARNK

Row | Binder | EC50
1 | B1 | 0.03 µg/mL
2 | B2 | 1.41 µg/mL
3 | B3 | 0.07 µg/mL
4 | B4 | 0.06 µg/mL

Each binder was assayed against T1, CD3 expressed on cell-surface of … (assay: flow cytometry on PBMCs, % anti-huIgG+ CD4+ cells, donor hu 340).
Protocol: (§1) Briefly, PBMCs from healthy human donors and healthy rhesus or cynomolgus monkey donors were incubated with different concentrations of HIV×CD3 bispecific molecules for 1 hour at RT. […] Cells were then washed, fixed/permeabilized, and analyzed on BD LSRFortessa. The percentage of α-huIgG-APC-positive CD4+ and CD8+ T cells and the mFI of the α-huIgG-APC of CD4+ and CD8+ cells were collected, and data analyzed using GraphPad Prism.

Row | Binder | EC50
5 | B1 | 0.05 µg/mL
6 | B2 | 1.64 µg/mL
7 | B3 | 0.1 µg/mL
8 | B4 | 0.07 µg/mL

Each binder was assayed against T1, CD3 expressed on cell-surface of … (assay: flow cytometry on PBMCs, % anti-huIgG+ CD8+ cells, donor hu 151).
Protocol: as §1

Row | Binder | EC50
9 | B1 | 0.04 µg/mL
10 | B2 | 1.62 µg/mL
11 | B3 | 0.09 µg/mL
12 | B4 | 0.08 µg/mL

The binders below were run against T1, CD3 expressed on cell-surface of … (assay: flow cytometry on PBMCs, % anti-huIgG+ CD8+ cells, donor hu 340).
Protocol: as §1

Row | Binder | EC50
13 | B1 | 0.06 µg/mL
14 | B2 | 1.21 µg/mL
15 | B3 | 0.14 µg/mL
16 | B4 | 0.1 µg/mL

These binders were tested against CD3 on rhesus monkey T cells in PBMCs (rhesus monkey) (assay: flow cytometry on PBMCs, % anti-huIgG+ CD4+ cells, donor rh 3483).
Chain of CD3 on rhesus monkey T cells in PBMCs (rhesus monkey) (P16003 26-458): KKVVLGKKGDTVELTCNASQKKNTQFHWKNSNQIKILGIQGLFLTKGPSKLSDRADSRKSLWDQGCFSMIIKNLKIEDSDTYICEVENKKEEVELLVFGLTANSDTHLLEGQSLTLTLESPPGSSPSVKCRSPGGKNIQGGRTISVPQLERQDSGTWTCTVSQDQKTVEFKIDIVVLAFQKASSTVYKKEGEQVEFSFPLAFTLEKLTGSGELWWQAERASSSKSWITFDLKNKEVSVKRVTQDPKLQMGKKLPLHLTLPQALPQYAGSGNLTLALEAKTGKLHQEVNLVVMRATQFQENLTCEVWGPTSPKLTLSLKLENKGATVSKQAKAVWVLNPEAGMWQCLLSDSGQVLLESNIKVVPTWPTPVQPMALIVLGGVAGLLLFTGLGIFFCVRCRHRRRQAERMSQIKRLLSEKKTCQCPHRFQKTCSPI

Row | Binder | EC50
17 | B1 | 0.02 µg/mL
18 | B2 | 0.93 µg/mL
19 | B3 | 0.06 µg/mL
20 | B4 | 0.07 µg/mL

The binders below were run against CD3 on rhesus monkey T cells in PBMCs (rhesus monkey) (assay: flow cytometry on PBMCs, % anti-huIgG+ CD4+ cells, donor rh 3563).

Row | Binder | EC50
21 | B1 | 0.02 µg/mL
22 | B2 | 1.48 µg/mL
23 | B3 | 0.08 µg/mL
24 | B4 | 0.07 µg/mL

What follows are binders tested against CD3 on rhesus monkey T cells in PBMCs (rhesus monkey) (assay: flow cytometry on PBMCs, % anti-huIgG+ CD8+ cells, donor rh 3483).

Row | Binder | EC50
25 | B1 | 0.04 µg/mL
26 | B2 | 2.35 µg/mL
27 | B3 | 0.11 µg/mL
28 | B4 | 0.13 µg/mL

These binders were tested against CD3 on rhesus monkey T cells in PBMCs (rhesus monkey) (assay: flow cytometry on PBMCs, % anti-huIgG+ CD8+ cells, donor rh 3563).

Row | Binder | EC50
29 | B1 | 0.08 µg/mL
30 | B2 | 3.52 µg/mL
31 | B3 | 0.21 µg/mL
32 | B4 | 0.2 µg/mL

The binders below were run against T1, CD3 expressed on cell-surface of … (assay: flow cytometry competition vs murine SP34-AF488 on human T cells, n = 1).
Protocol: (§2) Binding of humanized SP34 Fab variants to CD3 expressed on cell-surface of primary human T cells was evaluated in a flow cytometry-based competition assay.

Row | Binder | IC50
33 | B5 | 6.17 µg/mL
34 | B6 | 4.68 µg/mL
35 | B7 | 18.5 µg/mL
36 | B8 | 11.9 µg/mL
37 | B9 | 9.57 µg/mL
38 | B10 | 12.9 µg/mL
39 | B11 | 3.56 µg/mL
40 | B12 | > 20 µg/mL

These binders were tested against T1, CD3 expressed on cell-surface of … (assay: flow cytometry competition vs murine SP34-AF488 on human T cells, n = 2).
Protocol: as §2

Row | Binder | IC50
41 | B5 | 3.68 µg/mL
42 | B6 | 3.4 µg/mL
43 | B7 | 4.2 µg/mL
44 | B8 | 6.44 µg/mL
45 | B9 | 5.9 µg/mL
46 | B10 | 10 µg/mL
47 | B11 | 2.22 µg/mL
48 | B12 | 16.6 µg/mL

Biological target: T1, CD3 expressed on cell-surface of …
Test: flow cytometry competition vs murine SP34-AF488 on human T cells, n = 1
Remark: another data set of the same source
Protocol: as §2
(§3) A second round of huSP34 Fab variants were characterized using the same flow cytometry-based competition assay as described above.

Row | Binder | IC50
49 | B13 | 0.43 µg/mL
50 | B14 | 0.57 µg/mL
51 | B15 | 0.97 µg/mL
52 | B16 | 0.69 µg/mL
53 | B17 | 0.77 µg/mL
54 | B18 | 0.57 µg/mL
55 | B19 | 0.48 µg/mL
56 | B20 | 0.35 µg/mL

Biological target: T1, CD3 expressed on cell-surface of …
Test: flow cytometry competition vs murine SP34-AF488 on human T cells, n = 2
Remark: another data set of the same source
Protocol: as §2, §3

Row | Binder | IC50
57 | B13 | 0.18 µg/mL
58 | B14 | 0.22 µg/mL
59 | B15 | 0.49 µg/mL
60 | B16 | 0.33 µg/mL
61 | B17 | 0.39 µg/mL
62 | B18 | 0.29 µg/mL
63 | B19 | 0.25 µg/mL
64 | B20 | 0.15 µg/mL

The binders below were run against T1, CD3 expressed on cell-surface of … (assay: flow cytometry competition vs murine SP34-AF488 on human T cells, average).
Protocol: as §2

Row | Binder | IC50
65 | B5 | 4.92 µg/mL
66 | B6 | 4.04 µg/mL
67 | B7 | 11.4 µg/mL
68 | B8 | 9.19 µg/mL
69 | B9 | 7.74 µg/mL
70 | B10 | 11.4 µg/mL
71 | B11 | 2.89 µg/mL
72 | B12 | 16.6 µg/mL
73 | B21 | 0.7 µg/mL

Biological target: T1, CD3 expressed on cell-surface of …
Test: as above
Remark: another data set of the same source
Protocol: as §2, §3

Row | Binder | IC50
74 | B13 | 0.31 µg/mL
75 | B14 | 0.4 µg/mL
76 | B15 | 0.73 µg/mL
77 | B16 | 0.51 µg/mL
78 | B17 | 0.58 µg/mL
79 | B18 | 0.43 µg/mL
80 | B19 | 0.36 µg/mL
81 | B20 | 0.25 µg/mL
82 | B21 | 0.68 µg/mL
